The record followed here is US20030175929A1 (ORIENTAL YEAST, published 2003).

B1: human creatine kinase M type subunit (enzyme)
chain: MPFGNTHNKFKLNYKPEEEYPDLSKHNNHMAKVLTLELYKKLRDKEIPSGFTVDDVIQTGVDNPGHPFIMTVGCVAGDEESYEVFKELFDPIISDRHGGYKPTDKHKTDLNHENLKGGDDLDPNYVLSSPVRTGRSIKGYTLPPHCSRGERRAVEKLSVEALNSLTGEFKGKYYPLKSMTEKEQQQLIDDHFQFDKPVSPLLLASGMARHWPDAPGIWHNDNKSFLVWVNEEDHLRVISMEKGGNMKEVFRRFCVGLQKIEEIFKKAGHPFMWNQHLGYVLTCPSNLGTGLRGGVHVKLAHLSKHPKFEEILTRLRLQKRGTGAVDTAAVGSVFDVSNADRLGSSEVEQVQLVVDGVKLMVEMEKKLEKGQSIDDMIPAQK
notes: Co-expressed with the CK-B subunit from the single plasmid pTRP-hCKMB; also called CK-M subunit; CK-M
B2: human creatine kinase B type subunit (enzyme)
chain: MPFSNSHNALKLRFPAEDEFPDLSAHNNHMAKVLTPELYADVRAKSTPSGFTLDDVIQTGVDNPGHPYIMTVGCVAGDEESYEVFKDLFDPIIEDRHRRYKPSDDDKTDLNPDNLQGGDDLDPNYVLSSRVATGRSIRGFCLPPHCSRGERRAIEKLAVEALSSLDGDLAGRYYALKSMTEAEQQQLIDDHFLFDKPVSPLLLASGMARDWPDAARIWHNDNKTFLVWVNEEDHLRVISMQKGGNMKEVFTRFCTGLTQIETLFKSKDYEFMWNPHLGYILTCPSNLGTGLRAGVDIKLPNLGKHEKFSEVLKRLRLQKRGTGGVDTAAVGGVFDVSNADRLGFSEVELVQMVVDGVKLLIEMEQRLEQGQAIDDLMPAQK
notes: Co-expressed with the CK-M subunit from the single plasmid pTRP-hCKMB; also called CK-B subunit; CK-B

Data set [1] concerns the molecule itself. Kind of data set: co-expression in E. coli; Q-Sepharose separation of dimeric CK isozymes (homodimer). As to the method: (§1) The cells thus obtained were collected and suspended in a 50 mM phosphate buffer (pH 7.5) containing 5 mM of mercaptoethanol. After disrupting the cells by ultrasonication, the supernatant was referred to as a recombinant CK extract. From this extract, CK was recovered as a precipitate by 70%-saturation ammonium sulfate salting out. The precipitate thus salted out was dissolved in 1.5 M ammonium sulfate (pH 7.5) and subjected to hydrophobic column chromatography by using a Buthyl-Toyopearl C650 gel (manufactured by Tosoh). The CK activity was eluted at 1.5-0 M-gradient (pH 7.5) ammonium sulfate elution. The CK activity elution peaks were combined, concentrated by using an ultrafiltration membrane (YM10, manufactured by Amicon) and then dialyzed against a 50 mM phosphate buffer (pH 7.5). Fractions eluted by the hydrophobic chromatography were adsorbed by a Q-Sepharose column (manufactured by Pharmacia, Sweden) and thus it was attempted to separate CK isozymes.
(§2) As a result, the CK activity was separated into the MM type (unadsorbed fraction), the MB type (elution peak 1) and the BB type (elution peak 2). […] It was thus found out that CK-MB was expressed at a high dose in this recombinant strain. It could be also confirmed that three human recombinant CK isozymes could be prepared by using this expression strain alone. […]

In data set [2] the target is B2. Kind of data set: co-expression in E. coli; Q-Sepharose separation of dimeric CK isozymes; MB fraction purified to electrophoretic homogeneity by Sephacryl-S200HR gel filtration. As to the method: as §1, §2

B1: the binding result in data set [1] and in data set [2] was “binds” each time.

Regarding B2, the binding result in data set [1] is on record as “binds”.
